From paper PMC10123100, “Single-molecule visualization of stalled replication-fork rescue by the Escherichia coli Rep helicase” (Nucleic Acids Research, 2023)

What was measured:
[1] = molecular target: DnaB helicase (Escherichia coli) (UniProt P0ACB0)
[2] = molecular target: DnaB helicase (Escherichia coli) (UniProt P0ACB0); remark: listed apart in the source
[3] = molecular target: dCas9 D10A;H840A (UniProt Q99ZW2); assay: single-molecule TIRF; conditions: 3'-biotin on strand 2, SPR: 25 mM Tris-HCl pH 7.6, 50 mM NaCl, 5 mM MgCl2, 0.25 mM DTT, 0.2 mM EDTA, 0.005% P20, 20 C, single-molecule: 25 mM Tris-HCl pH 7.9, 10 mM Mg acetate
[4] = molecular target: DnaB (Escherichia coli) (UniProt P0ACB0); assay: SPR; conditions: cited from earlier work
Chain of DnaB (Escherichia coli) (P0ACB0 2-471): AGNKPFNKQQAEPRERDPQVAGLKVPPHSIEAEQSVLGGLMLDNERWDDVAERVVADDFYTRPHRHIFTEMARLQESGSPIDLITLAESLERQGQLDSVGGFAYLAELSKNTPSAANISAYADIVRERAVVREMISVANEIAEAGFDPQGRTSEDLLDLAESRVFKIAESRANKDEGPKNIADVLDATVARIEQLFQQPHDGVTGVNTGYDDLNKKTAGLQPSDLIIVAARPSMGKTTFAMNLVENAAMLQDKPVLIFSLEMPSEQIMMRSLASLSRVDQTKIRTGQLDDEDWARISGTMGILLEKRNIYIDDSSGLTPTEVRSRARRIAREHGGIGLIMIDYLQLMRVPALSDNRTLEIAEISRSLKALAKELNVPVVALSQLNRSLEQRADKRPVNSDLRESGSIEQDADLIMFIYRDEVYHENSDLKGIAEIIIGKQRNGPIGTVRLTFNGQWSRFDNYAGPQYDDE

Chain of DnaB helicase (Escherichia coli) (P0ACB0 whole entry): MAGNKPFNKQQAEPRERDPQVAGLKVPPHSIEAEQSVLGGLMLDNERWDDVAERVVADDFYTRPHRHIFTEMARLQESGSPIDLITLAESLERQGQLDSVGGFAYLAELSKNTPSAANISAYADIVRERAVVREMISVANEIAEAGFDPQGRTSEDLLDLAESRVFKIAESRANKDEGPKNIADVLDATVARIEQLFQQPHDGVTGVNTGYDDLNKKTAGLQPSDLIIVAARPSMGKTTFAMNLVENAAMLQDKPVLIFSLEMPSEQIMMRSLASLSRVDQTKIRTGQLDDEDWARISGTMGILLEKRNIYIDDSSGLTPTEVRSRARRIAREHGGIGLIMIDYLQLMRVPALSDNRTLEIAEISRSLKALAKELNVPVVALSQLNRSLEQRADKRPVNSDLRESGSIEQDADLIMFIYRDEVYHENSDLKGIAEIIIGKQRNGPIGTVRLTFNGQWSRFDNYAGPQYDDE
Chain of His6-Rep WT (P09980 whole entry): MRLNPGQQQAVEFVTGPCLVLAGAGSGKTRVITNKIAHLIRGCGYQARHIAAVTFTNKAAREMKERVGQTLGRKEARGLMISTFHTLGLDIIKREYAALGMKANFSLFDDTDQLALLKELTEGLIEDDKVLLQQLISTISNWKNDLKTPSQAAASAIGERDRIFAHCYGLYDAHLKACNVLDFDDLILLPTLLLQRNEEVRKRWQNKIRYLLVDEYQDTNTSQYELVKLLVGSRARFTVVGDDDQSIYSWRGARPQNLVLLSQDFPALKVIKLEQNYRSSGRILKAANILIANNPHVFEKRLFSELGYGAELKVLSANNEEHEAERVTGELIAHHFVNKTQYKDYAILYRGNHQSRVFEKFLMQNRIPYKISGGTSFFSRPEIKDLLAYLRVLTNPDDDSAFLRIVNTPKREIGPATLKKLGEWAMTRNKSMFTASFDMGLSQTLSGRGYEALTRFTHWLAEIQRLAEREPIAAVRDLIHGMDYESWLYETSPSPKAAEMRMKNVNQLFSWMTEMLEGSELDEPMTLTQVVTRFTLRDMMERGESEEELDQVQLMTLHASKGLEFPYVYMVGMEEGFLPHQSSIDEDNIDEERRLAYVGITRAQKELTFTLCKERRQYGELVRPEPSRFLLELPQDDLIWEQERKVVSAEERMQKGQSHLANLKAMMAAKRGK
Chain of His6-Rep ΔC33 (P09980 1-640, stated change not applied): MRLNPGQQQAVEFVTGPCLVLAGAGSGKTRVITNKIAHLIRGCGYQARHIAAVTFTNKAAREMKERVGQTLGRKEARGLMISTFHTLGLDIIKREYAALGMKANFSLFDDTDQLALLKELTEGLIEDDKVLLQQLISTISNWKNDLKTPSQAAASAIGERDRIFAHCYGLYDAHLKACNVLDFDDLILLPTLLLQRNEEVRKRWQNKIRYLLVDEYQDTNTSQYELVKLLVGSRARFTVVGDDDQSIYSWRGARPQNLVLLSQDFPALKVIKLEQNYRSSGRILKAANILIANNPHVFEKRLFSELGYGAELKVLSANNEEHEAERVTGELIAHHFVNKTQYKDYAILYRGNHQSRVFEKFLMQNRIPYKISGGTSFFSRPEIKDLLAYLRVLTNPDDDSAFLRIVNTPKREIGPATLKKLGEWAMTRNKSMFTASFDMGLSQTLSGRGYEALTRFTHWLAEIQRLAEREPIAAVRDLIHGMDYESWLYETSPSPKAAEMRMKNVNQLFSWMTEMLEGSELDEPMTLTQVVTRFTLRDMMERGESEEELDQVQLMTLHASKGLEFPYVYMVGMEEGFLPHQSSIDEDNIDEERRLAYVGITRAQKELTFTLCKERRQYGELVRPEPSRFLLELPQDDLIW
Chain of Rep (P09980 whole entry): as the sequence (P09980 whole entry) above

| Substance | binding signal (min (mean binding lifetime)) [3] | other results |
| --- | --- | --- |
| His6-Rep WT (from UniProt P09980 1-673) (enzyme) |  | mean total DNA product length after 3 min in the single-molecule stalled rolling-circle replication assay (template pre-incubated with the dCas9-cgRNA1-Atto647 roadblock), 20 nM Rep WT [1]: 65 kbp; replication efficiency in the single-molecule stalled rolling-circle replication assay (dCas9-cgRNA1-Atto647 roadblock), 20 nM Rep WT [2]: 2% |
| CACATGCTATGAGCTGTTGCAATCTCTCGTACAATTAATAGACTGGATGGTGGATGACAAAGCTCTACACTAGATACTCACAC (double strand) [gRNA40 / 83-mer target] | 1 |  |
| CACATGCTATGAGCTGTTGCAATCTCTCGTACAATTAATAGACTGGATGGTGGATGACAAAGCTCTACACTAGATACTCACAC (double strand) [gRNA80 / 83-mer target] | 8.6 |  |
| CACATGCTATGAGCTGTTGCAATCTCTCGTACAATTAATAGACTGGATGGTGGATGACAAAGCTCTACACTAGATACTCACAC (double strand) [gRNA60 / 83-mer target] | 8.3 |  |
| His6-Rep ΔC33 (from UniProt P09980 1-640) (domain or fragment) |  | mean total DNA product length after 3 min in the single-molecule stalled rolling-circle replication assay (template pre-incubated with the dCas9-cgRNA1-Atto647 roadblock), 20 nM Rep ΔC33 [1]: 2 kbp |
| Rep (from UniProt P09980) |  | Kd [4]: 90 nM |
| CACATGCTATGAGCTGTTGCAATCTCTCGTACAATTAATAGACTGGATGGTGGATGACAAAGCTCTACACTAGATACTCACAC (double strand) [gRNA20 / 83-mer target] | 1 |  |
